From US20230357391A1 (EXELIXIS, published 2023) come the findings set out here.

In experiment [1] the target is T1, human CD47 on cells (human, UniProt Q08722 19-323). The experiment can be described thus: cell-based or functional assay.
Experiment [2] addresses T1, human CD47 on cells. Nature of the experiment: flow cytometry, MDA-MB-231 cells. For orientation: In flow cytometry, cells or beads pass a laser one at a time.
Protocol: Cells were harvested at 70-90% confluence on the day of the assay. Cells were collected by centrifugation at 200xg for 5 minutes and media was removed. Cells were resuspended at 2×10⁶ cells per mL in cold PBS. An 8-point antibody dilution series (2x concentration) was prepared in PBS to cover the expected binding affinities of the antibodies being tested. […] 50 µL per well of cell suspension was added. Plates were placed at 4° C. for 45-60 minutes.
Cells were collected by centrifugation at 400xg for 7 minutes and secondary antibody was removed. Cells were resuspended in 50 µL per well of PBS and analyzed by flow cytometry. Binding curves were calculated using the mean fluorescence intensity (MFI) of the FITC fluorescence signal on the cells.
Experiment [3] has as its target T2, mouse CD47 (mouse, UniProt Q61735-2 19-158, limits assumed, biotinylated).
T2 construct: also called mCD47
T2 sequence (looked up): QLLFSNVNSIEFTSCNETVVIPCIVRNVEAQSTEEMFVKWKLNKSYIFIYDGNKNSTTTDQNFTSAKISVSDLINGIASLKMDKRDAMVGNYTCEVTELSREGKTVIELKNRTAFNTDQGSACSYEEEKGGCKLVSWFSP
The experiment can be described thus: BLI (Octet), mouse CD47 on sensor; X = no mouse cross-reactivity. On the technique in general: Biolayer interferometry detects binding as a change in optical thickness at a sensor tip.
Description: Mouse CD47 was obtained from Acro Biosystems (Acro Cat. No. CD7-M82E4, Acro Cat. No. CD7-M522b) and biotinylated using standard protocols. The free biotin was removed by extensive dialysis against PBS. Biotinylated antigen (CD47) was immobilized on a streptavidin sensor. The cross-reactive antibodies were identified by the association to mouse CD47 using Octet.

“And” between values parts separate entries of the source, which are not always exact repeats. Identical values can stand only once.

B1: Antibody C40 (antibody, human IgG1, kappa, V domains shown)
VH: EVQLVESGGGLVQPGGSLRLSCAASGFTFSYYYIHWVRQAPGKGLEWVAWIDPYGHSTTYADSVKGRFTISADTSKNTAYLQMNSLRAEDTAVYYCARGGRGAMDYWGQGTLVTAST
VL: DIQMTQSPSSLSASVGDRVTITCRASQSVSSAVAWYQQKPGKAPKLLIYSASSLYSGVPSRFSGSRSGTDFTLTISSLQPEDFATYYCQQRYSSLLTFGQGTKVEIKR
notes: Full length IgG
Regarding B1, the “IC50” value in experiment [1] worked out at 5.38 nM. In addition, in experiment [2], the EC50 is above 1000 nM.

B2: Antibody C59 (antibody, human IgG1, kappa, V domains shown)
VH: EVQLVESGGGLVQPGGSLRLSCAASGFTFTSYYIHWVRQAPGKGLEWVAYIDSKHGTTQYADSVKGRFTISADTSKNTAYLQMNSLRAEDTAVYYCARGGRSAMDYWGQGTLVTAST
VL: DIQMTQSPSSLSASVGDRVTITCRASQSVSSAVAWYQQKPGKAPKLLIYSASSLYSGVPSRFSGSRSGTDFTLTISSLQPEDFATYYCQQRTTSLLTFGQGTKVEIKR
notes: Full length IgG
B2: in experiment [1], the “IC50” value is 140 nM. Moreover, in experiment [3], the binding result was “no binding”. Further, the EC50 in experiment [2] is 200 to 1000 nM and 550 nM.

Broadly, the IC50 is the midpoint of a concentration-inhibition curve. Lower therefore signals greater potency. In general, EC50 refers to the concentration needed to bring the measured effect to its halfway point.
